Data taken from publication PMC9922763.

Molecular target: synthetic IAPP, used as monomer and as sonicated preformed fibrils (seeds) (UniProt P10997)

Sequence of synthetic IAPP, used as monomer and as sonicated preformed fibrils (seeds) (from UniProt P10997 34-70) (peptide) (P10997 34-70): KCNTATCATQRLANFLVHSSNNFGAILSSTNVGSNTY

synthetic IAPP, used as monomer and as sonicated preformed fibrils (seeds) (from UniProt P10997 34-70) (peptide)
lag phase of ThT fibril formation of 2.5 µM monomeric IAPP after adding IAPP seeds corresponding to 100 nM monomeric peptide (240 min without seeds); PBS pH 7.4, 37°C: 20 min
